The text below walks through data of patent US20180155451A1 (published 2018).

In experiment [1] the target is T1, FcγRIIIa extracellular domain with C-terminal His tag (human, UniProt P08637 17-208).
T1 construct: extracellular domain; also called 3a; FcgRIIIa
Put plainly: SPR; He/Con_3a over He/Con_2b (FcγRIIb). In general terms: Surface plasmon resonance follows binding to a sensor surface in real time, without labels.

For experiment [2], the target named is T1, FcγRIIIa extracellular domain with …. Kind of experiment: SPR, relative to GpH7-A5/GpH7-B3/GpL16-k0.
The target of experiment [3] is T2, FcγRIIb extracellular domain with C-terminal His tag (human, UniProt P31994 43-217).
T2 construct: extracellular domain; also called 2b; FcgRIIb
T2 sequence (looked up): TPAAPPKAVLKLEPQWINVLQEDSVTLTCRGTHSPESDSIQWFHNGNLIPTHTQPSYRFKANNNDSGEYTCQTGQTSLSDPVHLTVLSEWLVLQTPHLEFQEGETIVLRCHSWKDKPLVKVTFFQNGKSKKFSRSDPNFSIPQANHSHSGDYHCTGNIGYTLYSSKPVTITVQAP
Kind of experiment: SPR, relative to GpH7-A5/GpH7-B3/GpL16-k0.

T1 sequence (P08637 17-208): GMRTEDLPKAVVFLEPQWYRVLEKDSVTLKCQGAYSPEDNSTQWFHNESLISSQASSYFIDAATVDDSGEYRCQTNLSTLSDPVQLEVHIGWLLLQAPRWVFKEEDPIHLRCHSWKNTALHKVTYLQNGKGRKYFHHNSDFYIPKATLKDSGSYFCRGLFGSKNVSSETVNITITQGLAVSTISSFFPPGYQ

B1: GpH7-A5/GpH7-B3 variant G236_12R/GpL16-k0 (antibody, human IgG1, kappa)
heavy 1: not shown
heavy 2: not shown
light: DIVMTQSPLSLPVTPGEPASISCQASESLVHSNRNTYLHWYLQKPGQSPQLLIYKVSNRFSGVPDRFSGSGSGTDFTLKISRVEAEDVGVYYCSQNTHVPPTFGQGTKVEIERTVAAPSVFIFPPSDEQLKSGTASVVCLLNNFYPREAKVQWKVDNALQSGNSQESVTEQDSKDSTYSLSSTLTLSKADYEKHKVYACEVTHQGLSSPVTKSFNRGEC
notes: He Ab: alteration in one H chain only; also called He Ab
For B1, the “He_3a/2b (IIIa/IIb)” value in experiment [1] worked out at 1.84 ratio. The molecule further registered a He/Con_3a in experiment [2] of 12.5 control=100. Besides, the He/Con_2b in experiment [3] came out at 6.8 control=100.

B2: GpH7-A5/GpH7-B3 variant G236_16H/GpL16-k0 (antibody, human IgG1, kappa)
heavy 1: not shown
heavy 2: not shown
light: DIVMTQSPLSLPVTPGEPASISCQASESLVHSNRNTYLHWYLQKPGQSPQLLIYKVSNRFSGVPDRFSGSGSGTDFTLKISRVEAEDVGVYYCSQNTHVPPTFGQGTKVEIERTVAAPSVFIFPPSDEQLKSGTASVVCLLNNFYPREAKVQWKVDNALQSGNSQESVTEQDSKDSTYSLSSTLTLSKADYEKHKVYACEVTHQGLSSPVTKSFNRGEC
notes: as for B1
On to B2, for which the “He_3a/2b (IIIa/IIb)” value in experiment [1] came out at 1.54 ratio. The He/Con_3a in experiment [2] is 43.1 control=100. For the same molecule, the He/Con_2b in experiment [3] was 27.9 control=100.

B3: GpH7-A5/GpH7-B3 variant L234_03V/GpL16-k0 (antibody, human IgG1, kappa)
heavy 1: not shown
heavy 2: not shown
light: DIVMTQSPLSLPVTPGEPASISCQASESLVHSNRNTYLHWYLQKPGQSPQLLIYKVSNRFSGVPDRFSGSGSGTDFTLKISRVEAEDVGVYYCSQNTHVPPTFGQGTKVEIERTVAAPSVFIFPPSDEQLKSGTASVVCLLNNFYPREAKVQWKVDNALQSGNSQESVTEQDSKDSTYSLSSTLTLSKADYEKHKVYACEVTHQGLSSPVTKSFNRGEC
notes: as for B1
On to B3, for which the “He_3a/2b (IIIa/IIb)” value in experiment [1] was 1.25 ratio. In experiment [2], this molecule yielded a He/Con_3a of 91.4 control=100. In addition, the He/Con_2b in experiment [3] was 73.1 control=100.

B4: GpH7-A5/GpH7-B3 variant G236_15Y/GpL16-k0 (antibody, human IgG1, kappa)
heavy 1: not shown
heavy 2: not shown
light: DIVMTQSPLSLPVTPGEPASISCQASESLVHSNRNTYLHWYLQKPGQSPQLLIYKVSNRFSGVPDRFSGSGSGTDFTLKISRVEAEDVGVYYCSQNTHVPPTFGQGTKVEIERTVAAPSVFIFPPSDEQLKSGTASVVCLLNNFYPREAKVQWKVDNALQSGNSQESVTEQDSKDSTYSLSSTLTLSKADYEKHKVYACEVTHQGLSSPVTKSFNRGEC
notes: as for B1
Turning to B4, the “He_3a/2b (IIIa/IIb)” value in experiment [1] came out at 3.06 ratio. Also, the He/Con_3a in experiment [2] was 121 control=100. Further, the He/Con_2b in experiment [3] was determined as 39.5 control=100.

B5: GpH7-A5/GpH7-B3 variant H268_06M/GpL16-k0 (antibody, human IgG1, kappa)
heavy 1: not shown
heavy 2: not shown
light: DIVMTQSPLSLPVTPGEPASISCQASESLVHSNRNTYLHWYLQKPGQSPQLLIYKVSNRFSGVPDRFSGSGSGTDFTLKISRVEAEDVGVYYCSQNTHVPPTFGQGTKVEIERTVAAPSVFIFPPSDEQLKSGTASVVCLLNNFYPREAKVQWKVDNALQSGNSQESVTEQDSKDSTYSLSSTLTLSKADYEKHKVYACEVTHQGLSSPVTKSFNRGEC
notes: as for B1
For the molecule B5, the “He_3a/2b (IIIa/IIb)” value in experiment [1] stood at 1.22 ratio. This molecule showed a He/Con_3a in experiment [2] of 80.3 control=100. Further, in experiment [3], the He/Con_2b worked out at 65.7 control=100.

B6: GpH7-A5/GpH7-B3 variant G236_20W/GpL16-k0 (antibody, human IgG1, kappa)
heavy 1: not shown
heavy 2: not shown
light: DIVMTQSPLSLPVTPGEPASISCQASESLVHSNRNTYLHWYLQKPGQSPQLLIYKVSNRFSGVPDRFSGSGSGTDFTLKISRVEAEDVGVYYCSQNTHVPPTFGQGTKVEIERTVAAPSVFIFPPSDEQLKSGTASVVCLLNNFYPREAKVQWKVDNALQSGNSQESVTEQDSKDSTYSLSSTLTLSKADYEKHKVYACEVTHQGLSSPVTKSFNRGEC
notes: as for B1
Consider B6, for which the “He_3a/2b (IIIa/IIb)” value in experiment [1] is 2.33 ratio. The He/Con_3a in experiment [2] was determined as 135 control=100. This molecule also came in with a He/Con_2b in experiment [3] of 58.2 control=100.

B7: GpH7-A5/GpH7-B3 variant L234_05P/GpL16-k0 (antibody, human IgG1, kappa)
heavy 1: not shown
heavy 2: not shown
light: DIVMTQSPLSLPVTPGEPASISCQASESLVHSNRNTYLHWYLQKPGQSPQLLIYKVSNRFSGVPDRFSGSGSGTDFTLKISRVEAEDVGVYYCSQNTHVPPTFGQGTKVEIERTVAAPSVFIFPPSDEQLKSGTASVVCLLNNFYPREAKVQWKVDNALQSGNSQESVTEQDSKDSTYSLSSTLTLSKADYEKHKVYACEVTHQGLSSPVTKSFNRGEC
notes: as for B1
As for B7, in experiment [1], the “He_3a/2b (IIIa/IIb)” value was 1.21 ratio. In experiment [2], this molecule showed a He/Con_3a of 88.1 control=100. The molecule further gave a He/Con_2b in experiment [3] of 72.9 control=100.
